Source: US20260184777A1 (BEIJING SUNGEN BIOMEDICAL TECHNOLOGY, published 2026)

T1: human S100A8/A9 heterodimeric antigen, His-tagged (hS100A8/A9-His) (human, UniProt P05109 1-93; P06702 1-114)
T1 sequence 1: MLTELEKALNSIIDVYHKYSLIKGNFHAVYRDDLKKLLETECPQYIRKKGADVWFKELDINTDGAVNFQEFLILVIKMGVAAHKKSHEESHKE
T1 sequence 2: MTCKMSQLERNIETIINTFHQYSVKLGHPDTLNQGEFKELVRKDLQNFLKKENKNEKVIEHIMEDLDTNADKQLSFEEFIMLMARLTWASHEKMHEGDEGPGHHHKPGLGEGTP


These binders were tested against T1, human S100A8/A9 heterodimeric antigen, … (assay: cell-based or functional assay).

| Relative IC50 (IC50 relative to CM-1), IL-6 release from hS100A8/A9-activated human PBMCs | Binder |
| --- | --- |
| 0.703 relative to CM-1 | CM-73 (antibody, human IgG4 S228P, lambda, V domains shown) VH: EVQLVESGGGLVQPGGSLRLSCAASGFTYSSYAMSWVRQAPGKGLEWVSAISGSGGSTYYAASVKGRFTISRDNSKNTLYLQMNSLRAEDTAVYYCARKYRPSRAFDAWGQGTLVTVSS VL: SYELTQPPSVSVAPGQTARITCSGDALGDKYASWYQQKPGQAPVLVIYQDAKRPSGIPERFSGSNSGNTATLTISGTQAEDEADYYCQSNDIDAVWVFGGGTKLTVLG |
| 0.156 relative to CM-1 | CM-82 (antibody, human IgG4 S228P, lambda, V domains shown) VH: not shown VL: SYELTQPPSVSVAPGQTARITCSGDALGDKYASWYQQKPGQAPVLVIYEDAKRPWGIPERFSGSNSGNTATLTISGTQAEDEADYYCQSNDADAVWVFGGGTKLTVLG |
| 1.55 relative to CM-1 | CM-76 (antibody, human IgG4 S228P, lambda, V domains shown) VH: not shown VL: SYELTQPPSVSVAPGQTARITCSGDALGDKFASWYQQKPGQAPVLVIYEDAKRPSGIPERFSGSNSGNTATLTISGTQAEDEADYYCQSNDVDAVWVFGGGTKLTVLG |
| 1.86 relative to CM-1 | CM-85 (antibody, human IgG4 S228P, lambda, V domains shown) VH: EVQLVESGGGLVQPGGSLRLSCAASGYTFSSYAMSWVRQAPGKGLEWVSAISGSGGSTYYAASVKGRFTISRDNSKNTLYLQMNSLRAEDTAVYYCARKYRPSRVFDAWGQGTLVTVSS VL: SYELTQPPSVSVAPGQTARITCSGDALGDKYASWYQQKPGQAPVLVIYEDAKRPSGIPERFSGSNSGNTATLTISGTQAEDEADYYCQSNDADAVWVFGGGTKLTVLG |
| 1.52 relative to CM-1 | CM-74 (antibody, human IgG4 S228P, lambda, V domains shown) VH: EVQLVESGGGLVQPGGSLRLSCAASGFTFSSYAMSWVRQAPGKGLEWVSAISGSGGSTWYAASVKGRFTISRDNSKNTLYLQMNSLRAEDTAVYYCARKYRPSRVYDAWGQGTLVTVSS VL: SYELTQPPSVSVAPGQTARITCSGDALGDKYASWYQQKPGQAPVLVIYEDARRPSGIPERFSGSNSGNTATLTISGTQAEDEADYYCQSNDIDAVWVFGGGTKLTVLG |
| 0.695 relative to CM-1 | CM-79 (antibody, human IgG4 S228P, lambda, V domains shown) VH: not shown VL: SYELTQPPSVSVAPGQTARITCSGDALGDKYASWYQQKPGQAPVLVIYEDAKRNSGIPERFSGSNSGNTATLTISGTQAEDEADYYCQSNDADAVWVFGGGTKLTVLG |
| 2.85 relative to CM-1 | CM-75 (antibody, human IgG4 S228P, lambda, V domains shown) VH: EVQLVESGGGLVQPGGSLRLSCAASGFTFSSYAMSWVRQAPGKGLEWVSAISGSGGSTYYVASVKGRFTISRDNSKNTLYLQMNSLRAEDTAVYYCARKYRPSRAFDAWGQGTLVTVSS VL: SYELTQPPSVSVAPGQTARITCSGDALGDKFASWYQQKPGQAPVLVIYQDAKRPSGIPERFSGSNSGNTATLTISGTQAEDEADYYCQSNDADAVWVFGGGTKLTVLG |
| 1.01 relative to CM-1 | CM-88 (antibody, human IgG4 S228P, lambda, V domains shown) VH: EVQLVESGGGLVQPGGSLRLSCAASGFTFSDYAMSWVRQAPGKGLEWVSAISGSGGSTYYAASVKGRFTISRDNSKNTLYLQMNSLRAEDTAVYYCARKYRPSRVFDAWGQGTLVTVSS VL: SYELTQPPSVSVAPGQTARITCSGDALGDKYASWYQQKPGQAPVLVIYEDAKRPSGIPERFSGSNSGNTATLTISGTQAEDEADYYCQSNDADARWVFGGGTKLTVLG |
| 0.99 relative to CM-1 | CM-78 (antibody, human IgG4 S228P, lambda, V domains shown) VH: not shown VL: SYELTQPPSVSVAPGQTARITCSGDALGDKYASWYQQKPGQAPVLVIYEDAHRPSGIPERFSGSNSGNTATLTISGTQAEDEADYYCQSNDADAVWVFGGGTKLTVLG |
| 0.393 relative to CM-1 | CM-84 (antibody, human IgG4 S228P, lambda, V domains shown) VH: not shown VL: SYELTQPPSVSVAPGQTARITCSGDALGDKYASWYQQKPGQAPVLVIYEDAKRPDGIPERFSGSNSGNTATLTISGTQAEDEADYYCQSNDADAYWVFGGGTKLTVLG |
| 2.48 relative to CM-1 | CM-83 (antibody, human IgG4 S228P, lambda, V domains shown) VH: not shown VL: SYELTQPPSVSVAPGQTARITCSGDALGDKYASWYQQKPGQAPVLVIYEDAKRPDGIPERFSGSNSGNTATLTISGTQAEDEADYYCQSNDADAVWVFGGGTKLTVLG |
| 1.11 relative to CM-1 | CM-95 (antibody, human IgG4 S228P, lambda, V domains shown) VH: EVQLVESGGGLVQPGGSLRLSCAASGFTFSDYAMSWVRQAPGKGLEWVSAISGSGGSTYYAASVKGRFTISRDNSKNTLYLQMNSLRAEDTAVYYCARKYRPSRVFDAWGQGTLVTVSS VL: SYELTQPPSVSVAPGQTARITCSGDALGDKYASWYQQKPGQAPVLVIYEHHKRPSGIPERFSGSNSGNTATLTISGTQAEDEADYYCQSNDADAVWVFGGGTKLTVLG |
| 0.572 relative to CM-1 | CM-89 (antibody, human IgG4 S228P, lambda, V domains shown) VH: EVQLVESGGGLVQPGGSLRLSCAASGFTFSDYAMSWVRQAPGKGLEWVSAISGSGGSTYYAASVKGRFTISRDNSKNTLYLQMNSLRAEDTAVYYCARKYRPSRVFDAWGQGTLVTVSS VL: SYELTQPPSVSVAPGQTARITCSGDALGDKYASWYQQKPGQAPVLVIYEDAKRPSGIPERFSGSNSGNTATLTISGTQAEDEADYYCQSNDADAYWVFGGGTKLTVLG |
| 0.749 relative to CM-1 | CM-87 (antibody, human IgG4 S228P, lambda, V domains shown) VH: EVQLVESGGGLVQPGGSLRLSCAASGFTFSDYAMSWVRQAPGKGLEWVSAISGSGGSTYYAASVKGRFTISRDNSKNTLYLQMNSLRAEDTAVYYCARKYRPSRVFDAWGQGTLVTVSS VL: SYELTQPPSVSVAPGQTARITCSGDALGDKYASWYQQKPGQAPVLVIYEDAKRPSGIPERFSGSNSGNTATLTISGTQAEDEADYYCQSNDADAWWVFGGGTKLTVLG |
| 0.943 relative to CM-1 | CM-80 (antibody, human IgG4 S228P, lambda, V domains shown) VH: not shown VL: SYELTQPPSVSVAPGQTARITCSGDALGDKYASWYQQKPGQAPVLVIYEDAKRQSGIPERFSGSNSGNTATLTISGTQAEDEADYYCQSNDADAVWVFGGGTKLTVLG |
| 2.81 relative to CM-1 | CM-94 (antibody, human IgG4 S228P, lambda, V domains shown) VH: EVQLVESGGGLVQPGGSLRLSCAASGFTFSDYAMSWVRQAPGKGLEWVSAISGSGGSTYYAASVKGRFTISRDNSKNTLYLQMNSLRAEDTAVYYCARKYRPSRVFDAWGQGTLVTVSS VL: SYELTQPPSVSVAPGQTARITCSGDALHDKYASWYQQKPGQAPVLVIYEHHKRPSGIPERFSGSNSGNTATLTISGTQAEDEADYYCQSNDADAVWVFGGGTKLTVLG |
| 0.633 relative to CM-1 | CM-77 (antibody, human IgG4 S228P, lambda, V domains shown) VH: not shown VL: SYELTQPPSVSVAPGQTARITCSGDALGDKYASWYQQKPGQAPVLVIYEDANRPSGIPERFSGSNSGNTATLTISGTQAEDEADYYCQSNDADAVWVFGGGTKLTVLG |
| 2.51 relative to CM-1 | CM-81 (antibody, human IgG4 S228P, lambda, V domains shown) VH: not shown VL: SYELTQPPSVSVAPGQTARITCSGDALGDKYASWYQQKPGQAPVLVIYEDAKRDSGIPERFSGSNSGNTATLTISGTQAEDEADYYCQSNDADAVWVFGGGTKLTVLG |
| 1.54 relative to CM-1 | CM-90 (antibody, human IgG4 S228P, lambda, V domains shown) VH: EVQLVESGGGLVQPGGSLRLSCAASGFTFSDYAMSWVRQAPGKGLEWVSAISGSGGSTYYAASVKGRFTISRDNSKNTLYLQMNSLRAEDTAVYYCARKYRPSRVFDAWGQGTLVTVSS VL: SYELTQPPSVSVAPGQTARITCSGDALHDKYASWYQQKPGQAPVLVIYEDAKRPSGIPERFSGSNSGNTATLTISGTQAEDEADYYCQSNDADAVWVFGGGTKLTVLG |
| 0.953 relative to CM-1 | CM-93 (antibody, human IgG4 S228P, lambda, V domains shown) VH: EVQLVESGGGLVQPGGSLRLSCAASGFTFSDYAMSWVRQAPGKGLEWVSAISGSGGSTYYAASVKGRFTISRDNSKNTLYLQMNSLRAEDTAVYYCARKYRPSRVFDAWGQGTLVTVSS VL: SYELTQPPSVSVAPGQTARITCSGDALGDKYASWYQQKPGQAPVLVIYEDAKRPDGIPERFSGSNSGNTATLTISGTQAEDEADYYCQSNDADAYWVFGGGTKLTVLG |
| 1.27 relative to CM-1 | CM-86 (antibody, human IgG4 S228P, lambda, V domains shown) VH: EVQLVESGGGLVQPGGSLRLSCAASGFTFSSHAMSWVRQAPGKGLEWVSAISGSGGSTYYAASVKGRFTISRDNSKNTLYLQMNSLRAEDTAVYYCARKYRPSRVFDAWGQGTLVTVSS VL: SYELTQPPSVSVAPGQTARITCSGDALGDKYASWYQQKPGQAPVLVIYEDAKRPSGIPERFSGSNSGNTATLTISGTQAEDEADYYCQSNDADAVWVFGGGTKLTVLG |
| 0.697 relative to CM-1 | CM-92 (antibody, human IgG4 S228P, lambda, V domains shown) VH: EVQLVESGGGLVQPGGSLRLSCAASGFTFSDYAMSWVRQAPGKGLEWVSAISGSGGSTYYAASVKGRFTISRDNSKNTLYLQMNSLRAEDTAVYYCARKYRPSRVFDAWGQGTLVTVSS VL: SYELTQPPSVSVAPGQTARITCSGDALHDKYASWYQQKPGQAPVLVIYEDAKRPSGIPERFSGSNSGNTATLTISGTQAEDEADYYCQSNDADAYWVFGGGTKLTVLG |
| 1.1 relative to CM-1 | CM-91 (antibody, human IgG4 S228P, lambda, V domains shown) VH: EVQLVESGGGLVQPGGSLRLSCAASGFTFSDYAMSWVRQAPGKGLEWVSAISGSGGSTYYAASVKGRFTISRDNSKNTLYLQMNSLRAEDTAVYYCARKYRPSRVFDAWGQGTLVTVSS VL: SYELTQPPSVSVAPGQTARITCSGDALHDKYAAWYQQKPGQAPVLVIYEDAKRPSGIPERFSGSNSGNTATLTISGTQAEDEADYYCQSNDADAVWVFGGGTKLTVLG |
